# Data from publication PMC3968163.
# B1: unnamed (parent)
# chain 1: SIDPADLDESWDYIFETTESPSSD
# chain 2: MSHSGAAIFEKVSGIIAINEDVSPAELTWRSTDGDKVHTVVLSTIDKLQATPASSEKMMLRLIGKVDESKKRKDNEGNEVVPKPQRHMFSFNNRTVMDNIKMTLQQIISRYKDAD
# Variants of: B1
# Assay: ITC
# Details: with partner chain of the complex shown; 25°C in a 20 mM Tris pH 7.4
row,Variant,Kd [µM]
1,chain 1 SIDPADLDESWDYSFETTESPSSD [chain 1 I14S],4.2
